The values below come from article PMC2172734.

The test concerns the target Abi1, endogenous in mouse fibroblasts (mouse (endogenous in MEFs)) (UniProt Q8CBW3). Kind of test: co-IP.
UniProt Q8CBW3, sequence (Q8CBW3 whole entry): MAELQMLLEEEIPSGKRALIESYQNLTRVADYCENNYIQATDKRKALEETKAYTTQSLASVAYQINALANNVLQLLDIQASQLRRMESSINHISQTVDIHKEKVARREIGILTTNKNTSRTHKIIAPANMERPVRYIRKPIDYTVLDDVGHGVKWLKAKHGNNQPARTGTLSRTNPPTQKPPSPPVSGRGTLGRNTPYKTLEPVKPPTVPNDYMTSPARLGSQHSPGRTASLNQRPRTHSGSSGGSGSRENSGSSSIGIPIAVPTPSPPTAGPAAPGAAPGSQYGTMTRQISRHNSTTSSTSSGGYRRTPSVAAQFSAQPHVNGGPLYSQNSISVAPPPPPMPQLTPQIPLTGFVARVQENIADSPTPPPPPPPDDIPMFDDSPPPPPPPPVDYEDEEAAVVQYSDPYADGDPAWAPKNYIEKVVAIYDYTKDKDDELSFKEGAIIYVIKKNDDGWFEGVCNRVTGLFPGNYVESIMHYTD

The substance “p85 (regulatory subunit of class I PI3K), endogenous in mouse fibroblasts (from UniProt P26450 1-724) (natural protein)” registered a percent of total p85 associated with Abi1 immunoprecipitates of 1%.
